According to patent US20230132049A1 (Genmab, published 2023):
Like-named read-outs stand apart in the source and are kept apart here.

How the values were obtained:
[1] = target: T1, human CD30 (human, UniProt P28908 19-595); assay: flow cytometry on Expi293F cells transfected with human CD30
T1 construct: Endogenous on HL, ALCL and NHL tumor cell lines, or full-length huCD30 (Uniprot P28908) transiently expressed in Expi293F or HEK293 cells; also called huCD30; TNFRSF8
T1 sequence: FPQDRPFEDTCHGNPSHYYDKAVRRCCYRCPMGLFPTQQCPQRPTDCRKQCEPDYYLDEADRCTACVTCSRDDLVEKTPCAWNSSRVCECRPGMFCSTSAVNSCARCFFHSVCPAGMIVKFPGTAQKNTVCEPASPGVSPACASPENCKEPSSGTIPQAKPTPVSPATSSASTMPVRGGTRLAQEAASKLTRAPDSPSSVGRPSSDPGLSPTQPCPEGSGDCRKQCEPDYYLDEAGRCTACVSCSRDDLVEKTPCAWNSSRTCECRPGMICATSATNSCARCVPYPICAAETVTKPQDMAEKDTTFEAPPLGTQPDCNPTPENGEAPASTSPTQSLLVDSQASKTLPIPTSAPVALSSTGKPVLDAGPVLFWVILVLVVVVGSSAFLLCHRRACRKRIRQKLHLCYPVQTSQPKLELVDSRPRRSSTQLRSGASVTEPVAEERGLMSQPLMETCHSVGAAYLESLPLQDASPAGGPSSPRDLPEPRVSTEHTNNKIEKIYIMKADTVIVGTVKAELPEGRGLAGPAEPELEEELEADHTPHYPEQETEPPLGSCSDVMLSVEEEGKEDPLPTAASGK
Experimental: Cells (3×10⁴ cells/well) were incubated in polystyrene 96-well round-bottom plates (Thermo Scientific, cat. no. 163320) with serial dilutions of antibodies (ranging from 0.0002 to 50 μg/mL in 4-fold dilution steps) in 50 μL staining buffer at 4° C. for 30 min. Experiments were performed in technical duplicate. After washing twice in staining buffer, cells were incubated in 50 μL secondary antibody at 4° C. for 30 min. […] Cells were washed twice in staining buffer, resuspended in 30 μL staining buffer containing 0.4% EDTA and the ToPro-3 viability marker (Invitrogen, cat. no. T3605) diluted 1:10,000. Cells were analyzed on an iQue Screener (Intellicyt Corporation, USA). Binding curves were analyzed using non-linear regression (sigmoidal dose-response with variable slope) using GraphPad Prism V9.0.0 software (GraphPad Software, San Diego, Calif., USA).

[2] = target: T2, rhesus monkey (Macaca mulatta) CD30 (rhesus monkey, UniProt P28908 19-595 (human entry)); assay: flow cytometry on Expi293F cells transfected with rhesus monkey CD30
T2 construct: Full-length construct expressed in Expi293F cells; also called mmCD30
T2 chain: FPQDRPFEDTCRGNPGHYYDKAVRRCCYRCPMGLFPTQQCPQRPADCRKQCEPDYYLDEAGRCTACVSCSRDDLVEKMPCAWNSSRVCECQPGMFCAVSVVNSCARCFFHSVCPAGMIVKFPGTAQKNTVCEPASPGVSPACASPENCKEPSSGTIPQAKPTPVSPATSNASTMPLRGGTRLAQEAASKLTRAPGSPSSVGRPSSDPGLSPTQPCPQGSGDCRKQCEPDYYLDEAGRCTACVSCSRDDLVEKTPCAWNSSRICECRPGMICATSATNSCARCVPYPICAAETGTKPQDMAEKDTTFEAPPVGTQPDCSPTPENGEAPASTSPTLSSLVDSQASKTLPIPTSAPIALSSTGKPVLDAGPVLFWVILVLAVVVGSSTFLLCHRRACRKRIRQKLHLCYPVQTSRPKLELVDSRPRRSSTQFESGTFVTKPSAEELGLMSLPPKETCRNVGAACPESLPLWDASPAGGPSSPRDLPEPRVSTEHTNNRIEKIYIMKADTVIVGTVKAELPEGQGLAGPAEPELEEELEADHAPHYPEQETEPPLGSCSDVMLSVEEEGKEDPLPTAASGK

[3] = target: T1, human CD30; assay: cell-based or functional assay
[4] = target: T2, rhesus monkey (Macaca mulatta) CD30; assay: flow cytometry on Expi293F cells transfected with rhesus monkey CD30
[5] = target: T2, rhesus monkey (Macaca mulatta) CD30; assay: as above
[6] = target: T1, human CD30; assay: flow cytometry on SU-DHL-1 cells
Experimental: Binding of CD3×CD30 bispecific antibodies to two CD30-expressing human tumor cell lines SU-DHL-1 (ALCL; ATCC, cat. no. ACC 356) and HDLM-2 (HL; ATCC, cat. no. CRL-2965) was analyzed by flow cytometry.
(§1) Cells (3×10⁴ cells/well) were incubated in polystyrene 96-well round-bottom plates (Greiner bio-one, cat. no. 650180) with serial dilutions of antibodies (range 0.0046 to 10 μg/mL in 3-fold dilution steps) in 50 μL staining buffer at 4° C. for 30 min. After washing twice in staining buffer, cells were incubated with 50 μL secondary antibody at 4° C. for 30 min. […] Next, cells were washed twice in staining buffer, resuspended in 100 μL staining buffer supplemented with TO-PRO-3 iodide (Thermo Fisher Scientific; cat. no. T3605; 1:8000 dilution) and analyzed on a FACSCelesta flow cytometer (BD Biosciences, USA). Live cells were gated based on FSC/SSC and absence of TOPRO-3 staining. Binding curves were analyzed by non-linear regression of log-transformed data (sigmoidal dose-response with variable slope, four parameters) using GraphPad Prism V7.02 software (GraphPad Software, San Diego, Calif., USA).

[7] = target: T2, rhesus monkey (Macaca mulatta) CD30; assay: flow cytometry on Expi293F cells transfected with rhesus monkey CD30
[8] = target: T1, human CD30; assay: flow cytometry on DEL cells
[9] = target: T1, human CD30; assay: flow cytometry on NCEB-1 cells
Experimental: as §1

B1: IgG1-CD30-HRS-3-FEAR (antibody, V domains shown)
VH: QVQLQQSGAELARPGASVKMSCKASGYTFTTYTIHWVRQRPGHDLEWIGYINPSSGYSDYNQNFKGKTTLTADKSSNTAYMQLNSLTSEDSAVYYCARRADYGNYEYTWFAYWGQGTTVTVSS
VL: DIVMTQSPKFMSTSVGDRVTVTCKASQNVGTNVAWFQQKPGQSPKVLIYSASYRYSGVPDRFTGSGSGTDFTLTISNVQSEDLAEYFCQQYHTYPLTFGGGTKLEINR
notes: Monospecific, bivalent parental antibody
- EC50 (read off the curve) [1]: ~0.06 µg/mL
- EC50 (read off the curve) [2]: ~0.1 µg/mL

B2: bsG1-huCD3-FEAL×CD30-HeFi-I-FEAR (bispecific antibody, human IgG1, kappa, lambda)
heavy 1: not shown
light 1: not shown
heavy 2: EVKLVESGGGLVQPGGSLRLSCATSGFTFSDYYMNWVRQPPGKALEWLGFIRNKANGYTTEFSASVMGRFTISRDDSQSILYLQMNTLRAEDSATYYCARDPPYGNPHYYAMDYWGQGTSVTVSSASTKGPSVFPLAPSSKSTSGGTAALGCLVKDYFPEPVTVSWNSGALTSGVHTFPAVLQSSGLYSLSSVVTVPSSSLGTQTYICNVNHKPSNTKVDKRVEPKSCDKTHTCPPCPAPEFEGGPSVFLFPPKPKDTLMISRTPEVTCVVVAVSHEDPEVKFNWYVDGVEVHNAKTKPREEQYNSTYRVVSVLTVLHQDWLNGKEYKCKVSNKALPAPIEKTISKAKGQPREPQVYTLPPSREEMTKNQVSLTCLVKGFYPSDIAVEWESNGQPENNYKTTPPVLDSDGSFFLYSRLTVDKSRWQQGNVFSCSVMHEALHNHYTQKSLSLSPG
light 2: not shown
notes: Bispecific IgG1 by Fab-arm exchange of the two parental antibodies; also called BsIgG1-huCD3-FEAL×CD30-HeFi-I-FEAR
- cytotoxicity IC50 (µg/mL) average, Karpas-299 cells [3]: 0.052 µg/mL
- cytotoxicity maximum lysis (%) average, Karpas-299 cells [3]: 43%
- binding result [4]: no binding (tested: 10 µg/mL)

B3: bsG1-huCD3-FEAL×CD30-T405-FEAR (bispecific antibody, human IgG1, kappa, lambda)
heavy 1: not shown
light 1: not shown
heavy 2: QVQLQQIGAELVRPGASVKLSCKASGYTFNNYWINWVKQRPGQGLEWIGNIYPSDSRSNYNQKFKDKATLTVDKPSSTAYMQLSSPTSEDSAVYYCTLGSYWGQGTLVTVSAASTKGPSVFPLAPSSKSTSGGTAALGCLVKDYFPEPVTVSWNSGALTSGVHTFPAVLQSSGLYSLSSVVTVPSSSLGTQTYICNVNHKPSNTKVDKRVEPKSCDKTHTCPPCPAPEFEGGPSVFLFPPKPKDTLMISRTPEVTCVVVAVSHEDPEVKFNWYVDGVEVHNAKTKPREEQYNSTYRVVSVLTVLHQDWLNGKEYKCKVSNKALPAPIEKTISKAKGQPREPQVYTLPPSREEMTKNQVSLTCLVKGFYPSDIAVEWESNGQPENNYKTTPPVLDSDGSFFLYSRLTVDKSRWQQGNVFSCSVMHEALHNHYTQKSLSLSPG
light 2: DVVMTQTPLTLSVTIGQPASISCKSSQSLSDSDGKTYLNWLLQRPGQSPKRLIYLVSKLDSGVPDRFTGSGSGTDFTLKISRVEAEDLGVYYCWQGAHFPRTFGGGTKLEIKRTVAAPSVFIFPPSDEQLKSGTASVVCLLNNFYPREAKVQWKVDNALQSGNSQESVTEQDSKDSTYSLSSTLTLSKADYEKHKVYACEVTHQGLSSPVTKSFNRGEC
notes: Bispecific IgG1 by Fab-arm exchange of the two parental antibodies; also called bsIgG1-huCD3-FEAL×CD30-T405-FEAR
- cytotoxicity IC50 (µg/mL) average, Karpas-299 cells [3]: 0.078 µg/mL
- cytotoxicity maximum lysis (%) average, Karpas-299 cells [3]: 41.7%
- binding result [5]: binds

B4: IgG1-CD30-hAC10-FEAR (antibody, V domains shown)
VH: QVQLVQSGAEVKKPGASVKVSCKASGYTFTDYYITWVRQAPGQGLEWMGWIYPGSGNTKYNEKFKGRVTMTRDTSISTAYMELSRLRSDDTAVYYCANYGNYWFAYWGQGTLVTVSS
VL: DIVMTQSPDSLAVSLGERATINCKASQSVDFDGDSYMNWYQQKPGQPPKLLIYAASNLESGVPDRFSGSGSGTDFTLTISSLQAEDVAVYYCQQSNEDPWTFGQGTKVEIKR
notes: as for B1
- EC50 (read off the curve) [6]: ~0.05 µg/mL
- binding result [7]: binds

B5: IgG1-CD30-MDX060-FERR (antibody)
heavy: QVQLQQWGAGLLKPSETLSLTCAVYGGSFSAYYWSWIRQPPGKGLEWIGDINHGGGTNYNPSLKSRVTISVDTSKNQFSLKLNSVTAADTAVYYCASLTAYWGQGSLVTVSSASTKGPSVFPLAPSSKSTSGGTAALGCLVKDYFPEPVTVSWNSGALTSGVHTFPAVLQSSGLYSLSSVVTVPSSSLGTQTYICNVNHKPSNTKVDKRVEPKSCDKTHTCPPCPAPEFERGPSVFLFPPKPKDTLMISRTPEVTCVVVDVSHEDPEVKFNWYVDGVEVHNAKTKPREEQYNSTYRVVSVLTVLHQDWLNGKEYKCKVSNKALPAPIEKTISKAKGQPREPQVYTLPPSREEMTKNQVSLTCLVKGFYPSDIAVEWESNGQPENNYKTTPPVLDSDGSFFLYSRLTVDKSRWQQGNVFSCSVMHEALHNHYTQKSLSLSPG
light: DIQMTQSPTSLSASVGDRVTITCRASQGISSWLTWYQQKPEKAPKSLIYAASSLQSGVPSRFSGSGSGTDFTLTISSLQPEDFATYYCQQYDSYPITFGQGTRLEIKRTVAAPSVFIFPPSDEQLKSGTASVVCLLNNFYPREAKVQWKVDNALQSGNSQESVTEQDSKDSTYSLSSTLTLSKADYEKHKVYACEVTHQGLSSPVTKSFNRGEC
notes: Monospecific, bivalent parental antibody; also called IgG1-huCD30-MDX060-FERR
- EC50 (read off the curve) [8]: ~0.09 µg/mL
- EC50 (read off the curve) [9]: ~0.05 µg/mL

B6: IgG1-CD30-HeFi-I-FEAR (antibody, V domains shown)
VH: EVKLVESGGGLVQPGGSLRLSCATSGFTFSDYYMNWVRQPPGKALEWLGFIRNKANGYTTEFSASVMGRFTISRDDSQSILYLQMNTLRAEDSATYYCARDPPYGNPHYYAMDYWGQGTSVTVSS
VL: DIVLTQSPASLAVSLGQRATISCRASKSVSASGYNYMHWYQQKAGQPPKLLIHLASNLESGVPARFSGSGSGTDFTLNIHPVEEEDASTYYCQHSGELPFTFGSGTKLEIKR
notes: as for B1
- binding result [4]: no binding (tested: 10 µg/mL)
